Source: US20030022263A1 (ST JUDE CHILDREN S RESEARCH HOSPITAL, published 2003)

Target: T1, endogenous eIF-4E of mouse fibroblasts (mouse, UniProt P63073 2-217)
T1 construct: mature
Experiment: eIF-4E captured on a methyl-G column from mouse fibroblast lysates, Western blot for both proteins
Experimental: Fibroblasts from normal or AT mice were treated with (+) or without (−) insulin and total cellular and complexed eIF-4E and 4E-BP1 were examined by Western blot. […] The amount of 4E-BP1 bound to eIF-4E was examined by immunoprecipitating eIF-4E with a methyl-G column and then blotting for both proteins.

T1 sequence (P63073 2-217): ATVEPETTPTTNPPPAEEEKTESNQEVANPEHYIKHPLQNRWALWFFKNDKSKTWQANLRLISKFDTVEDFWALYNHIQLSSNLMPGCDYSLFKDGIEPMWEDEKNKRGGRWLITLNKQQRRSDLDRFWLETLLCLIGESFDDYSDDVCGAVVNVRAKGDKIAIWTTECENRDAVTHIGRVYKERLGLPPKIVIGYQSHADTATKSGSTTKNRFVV

binding result: binds
B1: endogenous 4E-BP1 of mouse fibroblasts (other, UniProt Q60876 2-117, looked up)
chain: SAGSSCSQTPSRAIPTRRVALGDGVQLPPGDYSTTPGGTLFSTTPGGTRIIYDRKFLMECRNSPVAKTPPKDLPAIPGVTSPTSDEPPMQASQSQLPSSPEDKRAGGEESQFEMDI
notes: mature
